Changes are numbered by the printed parent chain. In names and notes the source's numbering stands.
T1: EsCas13d, nuclease-dead (Eubacterium siraeum, UniProt B0MS50, R295A;H300A;R849A;H854A)
T1 sequence: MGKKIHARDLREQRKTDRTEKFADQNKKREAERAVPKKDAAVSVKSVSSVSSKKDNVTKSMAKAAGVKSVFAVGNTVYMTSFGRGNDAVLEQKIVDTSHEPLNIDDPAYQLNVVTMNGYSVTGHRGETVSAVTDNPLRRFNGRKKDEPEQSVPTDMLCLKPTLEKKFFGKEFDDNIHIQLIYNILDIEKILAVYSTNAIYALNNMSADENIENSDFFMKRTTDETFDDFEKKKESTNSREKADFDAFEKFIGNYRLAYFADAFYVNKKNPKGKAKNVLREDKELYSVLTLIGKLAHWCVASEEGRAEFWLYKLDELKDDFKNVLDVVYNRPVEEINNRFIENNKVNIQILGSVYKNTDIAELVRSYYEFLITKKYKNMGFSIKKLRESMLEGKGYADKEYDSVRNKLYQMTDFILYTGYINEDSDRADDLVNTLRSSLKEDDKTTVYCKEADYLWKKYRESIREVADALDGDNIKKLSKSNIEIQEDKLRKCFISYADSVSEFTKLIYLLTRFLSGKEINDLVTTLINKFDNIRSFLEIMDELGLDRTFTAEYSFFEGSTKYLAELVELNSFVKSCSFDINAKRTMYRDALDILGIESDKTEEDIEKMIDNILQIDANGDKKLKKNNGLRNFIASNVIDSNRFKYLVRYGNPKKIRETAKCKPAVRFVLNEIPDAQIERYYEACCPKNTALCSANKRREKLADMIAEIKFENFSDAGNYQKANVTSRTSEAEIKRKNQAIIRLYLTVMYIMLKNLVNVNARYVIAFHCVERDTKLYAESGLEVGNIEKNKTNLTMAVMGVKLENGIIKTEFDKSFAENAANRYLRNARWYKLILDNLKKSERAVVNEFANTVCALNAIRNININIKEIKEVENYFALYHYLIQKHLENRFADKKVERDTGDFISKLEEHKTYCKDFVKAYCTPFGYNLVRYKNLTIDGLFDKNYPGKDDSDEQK

B1: target 1 insC 3' of 22,insU 3' of 4 (mixed)
RNA 1: CACCCGUGCAAAAAUGCAGGGGUCUAAAACUGAGCGGAUAACCUCUCUAUGG
RNA 2: GGGAAUGGAUCCACAUCUACGAAUUCGUACCCAUAGAGAGGUUAUCCGCUUCACCGAGAUCGGAAGAGCACACGU
B2: target 1 insU 3' of 20,insA 3' of 17 (mixed)
RNA 1: B1 RNA 1
RNA 2: GGGAAUGGAUCCACAUCUACGAAUUCGUACCAUUAGAAGAGGUUAUCCGCUCACCGAGAUCGGAAGAGCACACGU
B3: target 1 C2A,U8A (mixed)
RNA 1: B1 RNA 1
RNA 2: GGGAAUGGAUCCACAUCUACGAAUUCGUACCAUAGAGAGGUUAACCGCUAACCGAGAUCGGAAGAGCACACGU
B4: target 2 MT 5'PFS GAG 3'PFS AUC (mixed)
RNA 1: CACCCGUGCAAAAUUGCAGGGGUCUAAAACCUUCUCCAAAUUGUUUCAUCCU
RNA 2: GGGAAUGGAUCCACAUCUACGAAUUCGAGAGGAUGAAACAAUUUGGAGAAGAUCAGAUCGGAAGAGCACACGU
B5: target 2 MT 5'PFS CUG 3'PFS CGA (mixed)
RNA 1: B4 RNA 1
RNA 2: B4 RNA 2 with G27C, A28U, A52C, U53G, C54A
B6: target 2 MT 5'PFS UCG 3'PFS AAU (mixed)
RNA 1: B4 RNA 1
RNA 2: B4 RNA 2 with G27U, A28C, U53A, C54U
B7: target 2 MT 5'PFS UGU 3'PFS AGC (mixed)
RNA 1: B4 RNA 1
RNA 2: B4 RNA 2 with G27U, A28G, G29U, U53G
B8: target 2 MT 5'PFS AGA 3'PFS CUU (mixed)
RNA 1: B4 RNA 1
RNA 2: B4 RNA 2 with G27A, A28G, G29A, A52C, C54U
B9: target 2 MT 5'PFS GUC 3'PFS AAU (mixed)
RNA 1: B4 RNA 1
RNA 2: B4 RNA 2 with A28U, G29C, U53A, C54U
B10: target 2 MT 5'PFS GAG 3'PFS UCC (mixed)
RNA 1: B4 RNA 1
RNA 2: B4 RNA 2 with A52U, U53C
B11: target 2 MT 5'PFS GUG 3'PFS CAA (mixed)
RNA 1: B4 RNA 1
RNA 2: B4 RNA 2 with A28U, A52C, U53A, C54A
B12: target 2 MT 5'PFS GAG 3'PFS UCG (mixed)
RNA 1: B4 RNA 1
RNA 2: B4 RNA 2 with A52U, U53C, C54G
B13: target 2 MT 5'PFS CUG 3'PFS CGG (mixed)
RNA 1: B4 RNA 1
RNA 2: B4 RNA 2 with G27C, A28U, A52C, U53G, C54G
B14: target 2 MT 5'PFS CUG 3'PFS CGU (mixed)
RNA 1: B4 RNA 1
RNA 2: B4 RNA 2 with G27C, A28U, A52C, U53G, C54U
B15: target 2 MT 5'PFS GCC 3'PFS CAG (mixed)
RNA 1: B4 RNA 1
RNA 2: B4 RNA 2 with A28C, G29C, A52C, U53A, C54G
B16: target 2 MT 5'PFS AUG 3'PFS ACU (mixed)
RNA 1: B4 RNA 1
RNA 2: B4 RNA 2 with G27A, A28U, U53C, C54U
B17: target 2 MT 5'PFS UAA 3'PFS CAA (mixed)
RNA 1: B4 RNA 1
RNA 2: B4 RNA 2 with G27U, G29A, A52C, U53A, C54A
B18: target 2 MT 5'PFS UGU 3'PFS AGU (mixed)
RNA 1: B4 RNA 1
RNA 2: B4 RNA 2 with G27U, A28G, G29U, U53G, C54U
B19: target 2 MT 5'PFS UAA 3'PFS CAC (mixed)
RNA 1: B4 RNA 1
RNA 2: B4 RNA 2 with G27U, G29A, A52C, U53A
B20: target 2 MT 5'PFS GUC 3'PFS AAC (mixed)
RNA 1: B4 RNA 1
RNA 2: B4 RNA 2 with A28U, G29C, U53A
B21: target 2 MT 5'PFS GUC 3'PFS AAG (mixed)
RNA 1: B4 RNA 1
RNA 2: B4 RNA 2 with A28U, G29C, U53A, C54G
B22: target 2 MT 5'PFS UGC 3'PFS GGC (mixed)
RNA 1: B4 RNA 1
RNA 2: B4 RNA 2 with G27U, A28G, G29C, A52G, U53G
B23: target 2 MT 5'PFS AUA 3'PFS AGA (mixed)
RNA 1: B4 RNA 1
RNA 2: B4 RNA 2 with G27A, A28U, G29A, U53G, C54A
B24: target 2 MT 5'PFS AUA 3'PFS AGG (mixed)
RNA 1: B4 RNA 1
RNA 2: B4 RNA 2 with G27A, A28U, G29A, U53G, C54G
B25: target 2 MT 5'PFS GCA 3'PFS CAU (mixed)
RNA 1: B4 RNA 1
RNA 2: B4 RNA 2 with A28C, G29A, A52C, U53A, C54U
B26: target 2 MT 5'PFS AGA 3'PFS CUC (mixed)
RNA 1: B4 RNA 1
RNA 2: B4 RNA 2 with G27A, A28G, G29A, A52C
B27: target 2 MT 5'PFS AUA 3'PFS AGU (mixed)
RNA 1: B4 RNA 1
RNA 2: B4 RNA 2 with G27A, A28U, G29A, U53G, C54U
B28: target 2 MT 5'PFS GCC 3'PFS CAC (mixed)
RNA 1: B4 RNA 1
RNA 2: B4 RNA 2 with A28C, G29C, A52C, U53A
B29: target 2 MT 5'PFS CGA 3'PFS UGC (mixed)
RNA 1: B4 RNA 1
RNA 2: B4 RNA 2 with G27C, A28G, G29A, A52U, U53G
B30: target 2 MT 5'PFS GCC 3'PFS CAU (mixed)
RNA 1: B4 RNA 1
RNA 2: B4 RNA 2 with A28C, G29C, A52C, U53A, C54U
B31: target 2 MT 5'PFS AGA 3'PFS CUA (mixed)
RNA 1: B4 RNA 1
RNA 2: B4 RNA 2 with G27A, A28G, G29A, A52C, C54A
B32: target 2 MT 5'PFS AGA 3'PFS CUG (mixed)
RNA 1: B4 RNA 1
RNA 2: B4 RNA 2 with G27A, A28G, G29A, A52C, C54G
B33: target 2 MT 5'PFS UUU 3'PFS AUU (mixed)
RNA 1: B4 RNA 1
RNA 2: B4 RNA 2 with G27U, A28U, G29U, C54U
B34: target 2 MT 5'PFS GUC 3'PFS AAA (mixed)
RNA 1: B4 RNA 1
RNA 2: B4 RNA 2 with A28U, G29C, U53A, C54A
B35: target 2 MT 5'PFS UAA 3'PFS CAU (mixed)
RNA 1: B4 RNA 1
RNA 2: B4 RNA 2 with G27U, G29A, A52C, U53A, C54U
B36: target 2 MT 5'PFS GAG 3'PFS UCA (mixed)
RNA 1: B4 RNA 1
RNA 2: B4 RNA 2 with A52U, U53C, C54A
B37: target 2 MT 5'PFS UCG 3'PFS AAG (mixed)
RNA 1: B4 RNA 1
RNA 2: B4 RNA 2 with G27U, A28C, U53A, C54G
B38: target 2 MT 5'PFS GCC 3'PFS CAA (mixed)
RNA 1: B4 RNA 1
RNA 2: B4 RNA 2 with A28C, G29C, A52C, U53A, C54A

What follows are binders tested against T1, EsCas13d, nuclease-dead (assay: crRNA (strand 1, pre-loaded); Mg2+; 40 mM Tris-HCl pH 7.5, 150 mM NaCl, 6 mM MgCl2, 1 mM DTT, 0.1% Tween-20, 0.2 mg/ml BSA; 25 C; 10 min per concentration, then washed). Settings: tags: His6-TwinStrep-SUMO cleaved; N-terminal SNAP kept (SNAP-Surface 488); label: 3' end held by stalled T7 RNA polymerase.

Binder	Kd
B1	15.1 ± 1.6 nM
B2	27.3 ± 2.4 nM
B3	19.7 ± 0.8 nM
B4	9.9 ± 1.4 nM
B5	3.4 ± 0.6 nM
B6	~24 nM
B7	12.5 ± 2.1 nM
B8	8.4 ± 1.2 nM
B9	12.8 ± 2.8 nM
B10	29 ± 5 nM
B11	6.8 ± 0.6 nM
B12	10.7 ± 0.9 nM
B13	2.31 ± 0.31 nM
B14	3.9 ± 0.6 nM
B15	9.4 ± 0.8 nM
B16	11.6 ± 1.9 nM
B17	2.4 ± 0.4 nM
B18	14.8 ± 2.4 nM
B19	5.6 ± 1.8 nM

Binder	Kd
B20	9.7 ± 1.5 nM
B21	16.8 ± 3.5 nM
B22	43 ± 10 nM
B23	6.1 ± 1.1 nM
B24	7.6 ± 1.1 nM
B25	8.8 ± 1.8 nM
B26	11.7 ± 1.9 nM
B27	26 ± 6 nM
B28	13 ± 1.7 nM
B29	6.8 ± 1.5 nM
B30	14 ± 4 nM
B31	7.6 ± 1.4 nM
B32	5.9 ± 1.1 nM
B33	9.1 ± 1 nM
B34	8.8 ± 1.5 nM
B35	4.9 ± 0.8 nM
B36	8 ± 0.8 nM
B37	32 ± 11 nM
B38	~27 nM

— PMC10786891, “Massively parallel profiling of RNA-targeting CRISPR-Cas13d”
